Data set [1] concerns the molecule itself. Briefly: SEC; SB-804HQ column on HPLC, buffer B with 20% ethylene glycol, 6 or 12 µM as monomer, heated 30 min at the specified temperature and run at the same temperature.
Data set [2] deals with T1, porcine heart citrate synthase (pig, UniProt P00889 28-464).
T1 construct: citrate synthase from porcine heart; Client protein; the complex with CgHspB1 appeared only after heating at 55 °C (heat-denatured CS); also called CS
T1 sequence (looked up): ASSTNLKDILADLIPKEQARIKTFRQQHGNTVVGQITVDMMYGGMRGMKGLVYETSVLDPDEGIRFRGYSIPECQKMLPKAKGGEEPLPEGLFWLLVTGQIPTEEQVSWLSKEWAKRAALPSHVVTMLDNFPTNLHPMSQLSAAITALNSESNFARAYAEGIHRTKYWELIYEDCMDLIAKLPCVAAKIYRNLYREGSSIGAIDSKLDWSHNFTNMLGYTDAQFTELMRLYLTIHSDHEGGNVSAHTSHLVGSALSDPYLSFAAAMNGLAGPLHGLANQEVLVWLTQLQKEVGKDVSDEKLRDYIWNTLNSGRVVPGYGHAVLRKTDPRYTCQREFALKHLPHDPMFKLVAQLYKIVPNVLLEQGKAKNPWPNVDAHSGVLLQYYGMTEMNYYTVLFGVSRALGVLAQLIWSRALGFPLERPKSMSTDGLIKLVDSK
Briefly: SEC; mixture of CgHspB1WT (30 µM) and CS incubated at 55 °C for 30 min, cooled to 25 °C and analysed at 25 °C. The note with it: both partners purified.

Data set [3] deals with the molecule itself. Briefly: SEC-MALS; TSKgel G3000XL column, buffer B (50 mM Tris/HCl pH 7.5, 0.1 mM EDTA, 150 mM NaCl), room temperature. (Size exclusion chromatography separates by hydrodynamic size, large species first.)
Data set [4] concerns the molecule itself. Briefly: SEC; mixture of CgHspB1WT (30 µM) and IPMDH incubated at 25 and 55 °C for 30 min and analysed at the same temperature; the 55 °C mixture also cooled and analysed at 25 °C.

These results are taken from publication PMC6768103, “Functional and structural characterization of HspB1/Hsp27 from Chinese hamster ovary cells” (FEBS Open Bio, 2019).

As usually defined, the stoichiometry N is a count of units in the complex or per binding partner.

Residue numbers refer to the chain shown, from its start. In names and notes the source's numbering stands.

B1: wild‐type CgHspB1 (HspB1/Hsp27 from Chinese hamster ovary cells) (natural protein, Chinese hamster (Cricetulus griseus), UniProt A0A8C2QII0 1-213, looked up)
chain: MTERRVPFSLLRSPSWEPFRDWYPAHSRLFDQAFGVPRLPDEWSQWFSAAGWPGYVRPLPAATAEGPAAVALAAPLAAPAFHRALNRQLSSGVSEIRQTADRWRVSLDVNHFAPEELTVKTKEGVVEITGKHEERQDEHGYISRCFTRKYTLPPGVDPTLVSSSLSPEGTLTVEAPLPKTATQSAEITIPVTFEARAQIGGQEAGKSEQSGAK
notes: HspB1/Hsp27 of Chinese hamster (Cricetulus griseus), full-length gene amplified from total cDNA of CHO cells; deduced subunit mass 23.4 kDa; 16-mer at room temperature by SEC-MALS; the oligomer varies with temperature and concentration; also called CgHspB1WT; HspB1 from CHO cells; source: E. coli BL21 Star (DE3) / BL21 (DE3), pET23b, purified (DEAE, RESOURCE Q, Superdex 200); copies: 16
B1: the “stoichiometry N” value in data set [1] was ~2; in data set [3], 16. Moreover, the binding result in data set [2] is reported as “binds”.

B2: CgHspB1 with S15D mutation (natural protein, Chinese hamster (Cricetulus griseus), UniProt A0A8C2QII0 1-213, looked up)
chain: B1 chain with S15D
notes: HspB1/Hsp27 of Chinese hamster (Cricetulus griseus), full-length gene from CHO cell cDNA, with S15D; Made by site-directed mutagenesis on pET23b-CgHspB1WT; also called CgHspB1S15D; CgHspBS15D; source: E. coli BL21 (DE3), pET23b, purified (DEAE, RESOURCE Q, Superdex 200)
Regarding B2, in data set [1], the “stoichiometry N” value is ~2.

B3: isopropyl malate dehydrogenase from Thermus thermophilus HB8 (enzyme, UniProt Q5SIY4 1-345, looked up)
chain: MKVAVLPGDGIGPEVTEAALKVLRALDEAEGLGLAYEVFPFGGAAIDAFGEPFPEPTRKGVEEAEAVLLGSVGGPKWDGLPRKIRPETGLLSLRKSQDLFANLRPAKVFPGLERLSPLKEEIARGVDVLIVRELTGGIYFGEPRGMSEAEAWNTERYSKPEVERVARVAFEAARKRRKHVVSVDKANVLEVGEFWRKTVEEVGRGYPDVALEHQYVDAMAMHLVRSPARFDVVVTGNIFGDILSDLASVLPGSLGLLPSASLGRGTPVFEPVHGSAPDIAGKGIANPTAAILSAAMMLEHAFGLVELARKVEDAVAKALLETPPPDLGGSAGTEAFTATVLRHLA
notes: isopropyl malate dehydrogenase (3-isopropylmalate dehydrogenase) from Thermus thermophilus HB8; also called IPMDH
Turning to B3, the “stoichiometry N” value in data set [4] stood at 2.
